Like-named read-outs stand apart in the source and are kept apart here. Where no end group is shown, it is not given here. [ ]: non-standard residue; d: D form. Aze = O=C(O)[C@@H]1CCN1

Here are results for 2 molecules from patent US20080113383A1 (FIBRO GEN, published 2008).

Holding throughout (test): cell-based or functional assay
In assay [1] the target is EGLN3.
Assay [2] has as its target EGLN2.
Assay [3] concerns the target EGLN1.
For assay [4], the target named is EGLN2. This is another data set of the same source.
In assay [5] the target is EGLN3. The source holds these as a separate data set.
Assay [6] deals with EGLN1. The source holds these as a separate data set.

Consider DTDLDLEMLAPYIPMDDDFQ [Control peptide DTD20, DTDLDLEMLApYIPMDDDFQ], for which the “Activity (%)” value in the assay with EGLN3 [1] stood at 119%. The “Activity (%)*” value in the assay with EGLN2 [2] came out at 100%; in the assay with EGLN1 [3], 100%; in the assay with EGLN2 [4], 100%; with EGLN3 [5], 119%; with EGLN1 [6] it was 100%.

DTDLDIEAVA[Aze]YIPADDDFQ [DTDLDIEAVA8YIPADDDFQ]: the “Activity (%)” value in the assay with EGLN3 [1] amounted to 18.8%. For the same molecule, the figures for the “Activity (%)*” value with EGLN2 [2] and with EGLN1 [3] were 1.96% and 6.35%, respectively.
